Measured values taken from US9453838B2, “Methods for making microarrays and their uses” (Asociación Centro De Investigación Cooperative En Bioma …, priority 2013, dated 2016).

Key:
Settings in all cases: RNAse-B 50 μg/mL in PBS
[1] = molecular target: T1, GNA (Galanthus nivalis agglutinin) (Galanthus nivalis, UniProt P30617); assay: Lectin array, RNAse B binding by fluorescence scanning and MALDI-Tof MS
T1 sequence (P30617 20-128): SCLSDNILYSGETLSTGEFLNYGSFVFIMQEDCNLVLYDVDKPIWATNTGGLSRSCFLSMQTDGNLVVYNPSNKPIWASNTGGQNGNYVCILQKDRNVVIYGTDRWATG
Experimental: (§1) Slides were stored at −20° C.

[2] = system: WGA (Wheat Germ Agglutinin); assay: as above
Experimental: as §1

ConA = ConA (Canavalia ensiformis, UniProt P02866)
Experimental: 0.4-0.3 mg/mL (glyco)protein solutions (Concanavalin A, ConA; WGA; and Galanthus nivalis agglutinin, GNA, lectins and RNAse B glycoprotein) were prepared in PBS, and 50 drops (˜0.3 nL per drop) were deposited onto the surface with a dot pitch of 750×750 μm. Slides were then incubated overnight at room temperature in 90% humidity, washed with PBS, quenched with ethanolamine and dried by purging Ar. Slides were stored at −20° C.
A lectin array of ConA, GNA and WGA was printed onto slides as described above, and Cy3-labelled or unlabelled RNAse-B (50 μg/mL in PBS) was added to wells. RNAse B binding and lectin modifications were analyzed by fluorescence imaging and MALDI-Tof MS (FIG. 12).

B1: RNAse B: RNAse B glycoprotein, glycoforms presenting mannose oligosaccharides M5-M9 (protein, UniProt P61823 27-150, looked up)
Ribonuclease pancreatic: KETAAAKFERQHMDSSTSAASSSNYCNQMMKSRNLTKDRCKPVNTFVHESLADVQAVCSQKNVACKNGQTNCYQSYSTMSITDCRETGSSKYPNCAYKTTQANKHIIVACEGNPYVPVHFDASV
modifications: glycoform B
binding to GNA [1]: binding
interaction with WGA [2]: no interaction
binding to ConA (ConA): binding
